biological target: HLA-A*01:01; assay: IEDB peptide-MHC binding, purified MHC/competitive/radioactivity; ≥ and ≤ were set here for values at or beyond the usual limits of such assays; conditions: source organism: Homo sapiens

Question: ATDGKVLLW was tested. Which IC50 did it give?
Answer: 191 nM

Question: Which IC50 does the source give for KLDLLEQEY here?
Answer: 70.6 nM

Question: How did the IC50 turn out when DTEFPNFKY was run?
Answer: 80.8 nM

Question: How did the IC50 turn out when FLWPEAFLY was run?
Answer: 1.3 nM

Question: For YVPEHWEYY, which IC50 is on record?
Answer: 11.1 nM

biological target: HLA-A*29:02; assay: as above; conditions: source organism: Homo sapiens

Question: How did the IC50 turn out when FYPELKLAY was run?
Answer: 0.2 nM

Question: LPLDIQIFY was tested. Which IC50 did it give?
Answer: 4.6 nM

Question: How did the IC50 turn out when YLPALKVEY was run?
Answer: 2.6 nM

Question: How did the IC50 turn out when HFLDRHLVF was run?
Answer: 1.6 nM

Question: For GLPDLVAKY, which IC50 is on record?
Answer: 29.7 nM

biological target: HLA-B*51:01; assay: as above; conditions: source organism: Homo sapiens

Question: With DAYPQRIKF as the sequence, how does the IC50 read?
Answer: 31 nM

Question: For DGYVVKETI, which IC50 is on record?
Answer: 13.4 nM

Question: With DGLLRVLTV as the sequence, how does the IC50 read?
Answer: 0.2 nM

Question: With VPPLVPKVL as the sequence, how does the IC50 read?
Answer: 56.3 nM

Question: With TPESKIRFV as the sequence, how does the IC50 read?
Answer: 84.8 nM

Question: With IIYPTPKVV as the sequence, how does the IC50 read?
Answer: 38 nM

Question: For DAPLNIRSI, which IC50 is on record?
Answer: 6.5 nM

Question: For YIIEREPLI, which IC50 is on record?
Answer: 1790 nM

Question: Which IC50 does the source give for DGLRDLPSI here?
Answer: 12.6 nM

Question: How did the IC50 turn out when VALLVGEKV was run?
Answer: 144 nM

biological target: HLA-B*54:01; assay: as above; conditions: source organism: Homo sapiens

Question: With FPKETFEGP as the sequence, how does the IC50 read?
Answer: 16.4 nM

Question: With SAPVNFISA as the sequence, how does the IC50 read?
Answer: 16.6 nM

Question: FVEILIPVA was tested. Which IC50 did it give?
Answer: 12.2 nM

Question: Which IC50 does the source give for YPVYQPVGP here?
Answer: 1.7 nM
